Measurements as given in patent US20210221899A1 (published 2021).
Positions count from the first letter of the chain named.

T1: canine NGF (canine, UniProt Q29074 110-229 (pig entry), limits assumed)
T1 construct: The protein was secreted from CHO cells and purified; also called cNGF; canine β-NGF
T1 chain: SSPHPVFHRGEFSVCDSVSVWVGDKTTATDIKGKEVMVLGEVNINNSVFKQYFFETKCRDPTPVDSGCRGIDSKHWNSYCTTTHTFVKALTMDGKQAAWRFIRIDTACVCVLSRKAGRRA

T2: human NGF (human, UniProt P01138 122-241)
T2 construct: also called human Nerve Growth Factor; hN
T2 chain: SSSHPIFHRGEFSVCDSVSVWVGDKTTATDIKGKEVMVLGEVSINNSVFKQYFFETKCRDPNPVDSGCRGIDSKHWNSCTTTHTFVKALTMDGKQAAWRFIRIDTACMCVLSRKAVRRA

B1: can9L12VH_S100A (antibody, V domains shown)
VH: EVQLVESGGDLVKPGGSLRLSCVASGFTFSSHGMHWVRQSPGKGLQWVAVINSGGSSTYYTDAVKGRFTISRDNAKNTVYLQMNSLRAEDTAMYYCAKEAVGGWEQLVGPHFDYWGQGTLVIVSS
VL: QSVLTQPTSVSGSLGQRVTISCSGSTNNIGILGASWYQLFPGKAPKLLVYGNGNRPSGVPDRFSGADSGDSVTLTITGLQAEDEADYYCQSFDTTLGAHVFGGGTHLTVL
B2: can9L12VH_T28A (antibody, V domains shown)
VH: B1 VH with T28A, A100S
VL: B1 VL
B3: can9L12VH_T58A (antibody, V domains shown)
VH: B1 VH with T58A, A100S
VL: B1 VL
B4: can9L12VH_V101A (antibody, V domains shown)
VH: B1 VH with A100S, V101A
VL: B1 VL
B5: can9L12VH_V108A (antibody, V domains shown)
VH: B1 VH with A100S, V108A
VL: B1 VL
B6: can9L12VH_W104A (antibody, V domains shown)
VH: B1 VH with A100S, W104A
VL: B1 VL
B7: can9L12VH_Y114A (antibody, V domains shown)
VH: B1 VH with A100S, Y114A
VL: B1 VL
B8: can9L12VL_D93A (antibody, V domains shown)
VH: B1 VH with A100S
VL: B1 VL with D93A
B9: can9L12VL_F92A (antibody, V domains shown)
VH: B1 VH with A100S
VL: B1 VL with F92A
B10: can9L12VL_G30A (antibody, V domains shown)
VH: B1 VH with A100S
VL: B1 VL with G30A
B11: can9L12VL_G33A (antibody, V domains shown)
VH: B1 VH with A100S
VL: B1 VL with G33A
B12: can9L12VL_G51A (antibody, V domains shown)
VH: B1 VH with A100S
VL: B1 VL with G51A
B13: can9L12VL_G53A (antibody, V domains shown)
VH: B1 VH with A100S
VL: B1 VL with G53A
B14: can9L12VL_G97A (antibody, V domains shown)
VH: B1 VH with A100S
VL: B1 VL with G97A
B15: can9L12VL_H99A (antibody, V domains shown)
VH: B1 VH with A100S
VL: B1 VL with H99A
B16: can9L12VL_I29A (antibody, V domains shown)
VH: B1 VH with A100S
VL: B1 VL with I29A
B17: can9L12VL_I31A (antibody, V domains shown)
VH: B1 VH with A100S
VL: B1 VL with I31A
B18: can9L12VL_L32A (antibody, V domains shown)
VH: B1 VH with A100S
VL: B1 VL with L32A
B19: can9L12VL_L96A (antibody, V domains shown)
VH: B1 VH with A100S
VL: B1 VL with L96A
B20: can9L12VL_N27A (antibody, V domains shown)
VH: B1 VH with A100S
VL: B1 VL with N27A
B21: can9L12VL_N28A (antibody, V domains shown)
VH: B1 VH with A100S
VL: B1 VL with N28A
B22: can9L12VL_N52A (antibody, V domains shown)
VH: B1 VH with A100S
VL: B1 VL with N52A
B23: can9L12VL_O90A (antibody, V domains shown)
VH: B1 VH with A100S
VL: B1 VL with Q90A
B24: can9L12VL_S91A (antibody, V domains shown)
VH: B1 VH with A100S
VL: B1 VL with S91A

Legend:
Test in all cases: SPR (Biacore T200), 100 nM mAb on NGF chip, similarity to parent mAb
canine NGF = biological target: T1, canine NGF
Excerpt: (§1) The region of an antibody responsible for antigen recognition represents the paratope. A paratope is created by a combination of amino acids in the complementarity determining regions (CDRs) of both the heavy and light chain variable regions. The binding between antibody and antigen is often mediated by side chains of CDR residues with side chains or carbohydrate moieties of the antigen. To help define critical side chains involved in antibody recognition alanine scanning mutagenesis was performed on each CDR residue in both the heavy and light chain, the technique as described by Cunningham and Wells (1989) Science, Vol. 244, Issue 4908, pp. 1081-1085. These mutants were then individually tested for the ability to NGF using the Biacore. […] Values were then compared to the wild type antibodies and are represented in the tables as a percent of wild type binding. The data presented in Tables 4 and 5 below are shown as a “percent similarity score” compared to wild type.
(§2) The mean response unit of four replicates of the parent mAb+/−3 standard deviations was used to generate parameters to define a threshold of response units comprising both the on- and off-rates antibody binding. The percentage of data points for each mutant fell within this threshold was then used to define a “% similarity score”. […] Results from substitution of alanine at each CDR position

rat NGF = biological target: T3, rat NGF (rat, UniProt P25427 122-241)
T3 construct: also called rN
T3 sequence (P25427 122-241 limits assumed): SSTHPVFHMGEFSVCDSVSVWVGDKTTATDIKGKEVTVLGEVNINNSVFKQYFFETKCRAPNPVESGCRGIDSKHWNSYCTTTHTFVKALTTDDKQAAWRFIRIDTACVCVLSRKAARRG
Excerpt: as §1, §2

human NGF = biological target: T2, human NGF
Excerpt: as §1, §2

Row | Binder | Percent Similarity Score (KD on cN) (canine NGF) [%] | Percent Similarity Score (KD on rN) (rat NGF) [%] | Percent Similarity Score (KD on hN) (human NGF) [%]
1 | B1 | 76.2 | 51.6 | 42.1
2 | B2 | 100 | 100 | 96.6
3 | B3 | 100 | 99.9 | 100
4 | B4 | 13.6 | 4.27 | 5.29
5 | B5 | 93.2 | 62 | 56.3
6 | B6 | 19.2 | 8.2 | 5.2
7 | B7 | 100 | 99.2 | 99.9
8 | B8 | 11 | 3.7 | 3.3
9 | B9 | 7.2 | 2.3 | 2.7
10 | B10 | 53.9 | 13.8 | 16.2
11 | B11 | 7.5 | 2.9 | 2.3
12 | B12 | 100 | 99.9 | 100
13 | B13 | 34.2 | 11.7 | 10
14 | B14 | 98.9 | 35.9 | 43.3
15 | B15 | 100 | 43.7 | 56.9
16 | B16 | 4.4 | 1.6 | 1.5
17 | B17 | 41.2 | 12.6 | 11.4
18 | B18 | 4.4 | 1.7 | 1.5
19 | B19 | 97 | 37 | 34.2
20 | B20 | 100 | 99.9 | 100
21 | B21 | 6.6 | 2.5 | 2.1
22 | B22 | 100 | 100 | 100
23 | B23 | 79.2 | 24.2 | 19.3
24 | B24 | 39.3 | 14.5 | 11.6
